{
  "source": "paper doi:10.1101/2024.12.27.630498",
  "about": "(bioRxiv, 2024)",
  "proteins": {"B1": {"name": "Arabidopsis thaliana AKT1 (Arabidopsis K+ transporter 1), construct for the structure of AKT1 alone (natural protein)", "chain": "not shown"}},
  "biological_target": "the molecule itself",
  "experiment": "cryo-EM structure",
  "data": [
    {"protein": "B1", "values": [
      {"measurement": "stoichiometry N", "result": 4}
    ]}
  ]
}
